Reference: US12692294B2, “Engineered NRG-1 variants with improved selectivity toward ErbB4 but not against ErbB3” (Amgen Inc., priority 2021, dated 2026)

Key:
[1] = target: T1, ErbB3 (Rattus norvegicus, UniProt Q62799); experiment: In vitro phosphorylation of Akt in rat Schwann cells; type: cell-based; conditions: Akt (Serine 473) phosphorylation, 15 minutes treatment; for EC50: read-out: Schwann cells (SC) (ErbB3) Avg EC50
T1 construct: forming the ErbB2/ErbB4 complex in cardiomyocytes and the ErbB2/ErbB3 complex in Schwann cells; endogenous in cells; host or cells: rat Schwann cells
Procedure: (§1) In Vitro Phosphorylation of Akt in Neonatal Rat Cardiomyocytes and Rat Schwann Cells by Neuregulin Variants
(§2) Specificity of neuregulin variants towards cardiomyocytes (ErbB4) versus Schwann cells (ErbB3) was tested by measuring Akt activity generated by formation of the ErbB2/ErbB4 and ErbB2/ErbB3 complexes. Upon activation by neuregulin, the ErbB4 and ErbB3 receptors dimerize preferentially with the ErbB2 co-receptor, forming the ErbB2/ErbB4 complex in cardiomyocytes and the ErbB2/ErbB3 complex in Schwann cells, both of which signal through the Akt pathway. Neonatal rat cardiomyocytes were isolated from hearts of Sprague Dawley rat pups at 0 to 4 days old according to manufacturer's protocol using the Neomyt kit and plated on Surecoat plates in NS media containing serum (all from Cellultron Life Technologies, Baltimore, MD). Rat Schwann cells were plated in Poly-D-Lysine coated plates with Dulbecco's modified Eagle's media (DMEM) supplemented with fetal bovine serum (Thermo Fisher) and forskolin (Millipore Sigma).
(§3) After a 24-hour incubation in a humidified incubator maintained at 37° C. and 5% CO2, cardiomyocytes and Schwann cells were washed with serum free media and incubated an additional 16 hours in DMEM supplemented with bovine serum albumin (Sigma). Both cell lines were then treated with titrations of the neuregulin variant molecules for 15 minutes, upon which cells were lysed in lysis buffer (Meso Scale Discovery (MSD)). For detection of Akt phosphorylation, lysates were added to the Multi-Spot 96-Well 4-Spot Phospho (Serine 473)/Total Akt plates (MSD), incubated according to the manufacturer's protocol and read in the SECTOR Imager 6000 (MSD). For both cell assays, the percent phosphorylation of Akt was calculated by multiplying the phospho Akt signal by 2, then dividing by the phospho Akt signal added to the total Akt signal and then multiplying by 100. The phosphorylation of Akt data points were fitted using a log (agonist) versus response, variable slope (4 parameters) analysis in GraphPad Prism to generate EC50 curves. The CM % agonism reflect the top value of the data points.

[2] = target: T2, ErbB4 (Rattus norvegicus, UniProt Q62956); experiment: In vitro phosphorylation of Akt in neonatal rat cardiomyocytes; type: cell-based; conditions: for EC50: Akt (Serine 473) phosphorylation, neonatal rat cardiomyocytes, 15 minutes treatment, read-out: Cardiomyocyte (CM) (ErbB4) Avg EC50; for Selectivity SC/CM: ratio of EC50s Schwann cells/cardiomyocytes; for CM % Agonism AVG: top value of the Akt phosphorylation data points in cardiomyocytes, wild-type control 100
T2 construct: forming the ErbB2/ErbB4 complex in cardiomyocytes and the ErbB2/ErbB3 complex in Schwann cells; endogenous in cells; host or cells: primary neonatal rat cardiomyocytes (Sprague Dawley pups, 0 to 4 days old)
Procedure: as §1, §2, §3

T1 sequence (Q62799 20-1339): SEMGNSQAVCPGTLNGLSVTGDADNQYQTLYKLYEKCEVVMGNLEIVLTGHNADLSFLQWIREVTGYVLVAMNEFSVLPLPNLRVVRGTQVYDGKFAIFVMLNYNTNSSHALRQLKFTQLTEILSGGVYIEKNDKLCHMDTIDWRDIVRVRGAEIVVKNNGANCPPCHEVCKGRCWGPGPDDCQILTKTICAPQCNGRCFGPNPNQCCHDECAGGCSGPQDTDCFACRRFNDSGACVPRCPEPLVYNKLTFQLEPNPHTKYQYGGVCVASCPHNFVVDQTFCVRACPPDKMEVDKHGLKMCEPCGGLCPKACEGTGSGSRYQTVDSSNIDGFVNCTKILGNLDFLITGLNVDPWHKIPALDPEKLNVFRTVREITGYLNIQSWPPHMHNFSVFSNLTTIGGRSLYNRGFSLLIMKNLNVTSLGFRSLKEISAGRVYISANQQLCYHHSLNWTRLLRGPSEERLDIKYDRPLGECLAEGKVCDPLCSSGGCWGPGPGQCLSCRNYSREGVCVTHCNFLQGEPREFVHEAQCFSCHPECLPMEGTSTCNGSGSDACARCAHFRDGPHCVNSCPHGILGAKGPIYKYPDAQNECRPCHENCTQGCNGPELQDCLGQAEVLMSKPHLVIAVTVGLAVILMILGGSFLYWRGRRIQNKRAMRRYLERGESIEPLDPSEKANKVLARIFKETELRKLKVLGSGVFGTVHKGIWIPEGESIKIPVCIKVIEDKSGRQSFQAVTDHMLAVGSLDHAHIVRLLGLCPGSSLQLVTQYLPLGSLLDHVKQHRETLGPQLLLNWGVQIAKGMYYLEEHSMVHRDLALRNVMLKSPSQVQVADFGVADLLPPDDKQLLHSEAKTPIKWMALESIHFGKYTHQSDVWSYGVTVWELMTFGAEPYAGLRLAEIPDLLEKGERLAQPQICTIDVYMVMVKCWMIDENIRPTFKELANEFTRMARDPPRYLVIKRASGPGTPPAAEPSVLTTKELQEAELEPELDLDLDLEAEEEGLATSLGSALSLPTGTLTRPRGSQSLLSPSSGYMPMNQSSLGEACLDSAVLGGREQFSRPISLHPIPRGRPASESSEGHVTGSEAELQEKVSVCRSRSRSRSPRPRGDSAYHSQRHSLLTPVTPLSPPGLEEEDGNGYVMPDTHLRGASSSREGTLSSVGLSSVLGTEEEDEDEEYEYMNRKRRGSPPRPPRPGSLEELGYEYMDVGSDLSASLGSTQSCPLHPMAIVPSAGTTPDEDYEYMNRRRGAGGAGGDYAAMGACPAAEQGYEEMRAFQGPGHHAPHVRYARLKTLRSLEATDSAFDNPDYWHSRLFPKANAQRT
T1 sequence (P06494 23-1257 partner): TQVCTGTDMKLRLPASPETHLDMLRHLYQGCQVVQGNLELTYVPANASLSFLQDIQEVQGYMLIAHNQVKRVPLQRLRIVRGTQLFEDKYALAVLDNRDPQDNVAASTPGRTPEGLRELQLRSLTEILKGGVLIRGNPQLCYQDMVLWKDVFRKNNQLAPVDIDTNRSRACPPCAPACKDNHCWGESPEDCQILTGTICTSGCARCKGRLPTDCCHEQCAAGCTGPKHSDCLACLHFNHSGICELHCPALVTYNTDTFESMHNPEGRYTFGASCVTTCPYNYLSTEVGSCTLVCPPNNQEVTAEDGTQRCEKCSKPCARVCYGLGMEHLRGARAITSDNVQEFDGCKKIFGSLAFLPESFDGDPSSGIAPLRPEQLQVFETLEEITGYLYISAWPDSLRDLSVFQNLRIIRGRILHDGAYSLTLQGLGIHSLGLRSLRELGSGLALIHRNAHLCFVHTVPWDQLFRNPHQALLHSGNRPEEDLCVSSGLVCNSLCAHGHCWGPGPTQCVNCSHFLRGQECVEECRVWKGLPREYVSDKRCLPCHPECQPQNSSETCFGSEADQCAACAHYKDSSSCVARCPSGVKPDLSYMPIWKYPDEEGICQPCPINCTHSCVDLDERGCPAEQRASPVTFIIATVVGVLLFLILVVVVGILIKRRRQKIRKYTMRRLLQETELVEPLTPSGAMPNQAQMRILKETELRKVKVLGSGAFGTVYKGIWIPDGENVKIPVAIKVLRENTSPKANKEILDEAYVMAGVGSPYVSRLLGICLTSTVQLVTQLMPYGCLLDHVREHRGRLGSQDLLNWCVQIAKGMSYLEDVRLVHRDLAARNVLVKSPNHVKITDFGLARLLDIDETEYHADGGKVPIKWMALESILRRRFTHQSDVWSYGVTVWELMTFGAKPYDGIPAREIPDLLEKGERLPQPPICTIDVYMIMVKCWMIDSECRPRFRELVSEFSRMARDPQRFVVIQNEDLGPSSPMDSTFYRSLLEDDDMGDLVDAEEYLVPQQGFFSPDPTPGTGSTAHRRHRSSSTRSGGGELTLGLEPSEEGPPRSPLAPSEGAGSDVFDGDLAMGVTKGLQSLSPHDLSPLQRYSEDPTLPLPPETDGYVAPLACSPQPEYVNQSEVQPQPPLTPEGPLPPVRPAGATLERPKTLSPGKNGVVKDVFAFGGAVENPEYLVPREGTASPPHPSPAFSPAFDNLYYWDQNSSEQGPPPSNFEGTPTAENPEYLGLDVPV
T2 sequence (Q62956 26-1308): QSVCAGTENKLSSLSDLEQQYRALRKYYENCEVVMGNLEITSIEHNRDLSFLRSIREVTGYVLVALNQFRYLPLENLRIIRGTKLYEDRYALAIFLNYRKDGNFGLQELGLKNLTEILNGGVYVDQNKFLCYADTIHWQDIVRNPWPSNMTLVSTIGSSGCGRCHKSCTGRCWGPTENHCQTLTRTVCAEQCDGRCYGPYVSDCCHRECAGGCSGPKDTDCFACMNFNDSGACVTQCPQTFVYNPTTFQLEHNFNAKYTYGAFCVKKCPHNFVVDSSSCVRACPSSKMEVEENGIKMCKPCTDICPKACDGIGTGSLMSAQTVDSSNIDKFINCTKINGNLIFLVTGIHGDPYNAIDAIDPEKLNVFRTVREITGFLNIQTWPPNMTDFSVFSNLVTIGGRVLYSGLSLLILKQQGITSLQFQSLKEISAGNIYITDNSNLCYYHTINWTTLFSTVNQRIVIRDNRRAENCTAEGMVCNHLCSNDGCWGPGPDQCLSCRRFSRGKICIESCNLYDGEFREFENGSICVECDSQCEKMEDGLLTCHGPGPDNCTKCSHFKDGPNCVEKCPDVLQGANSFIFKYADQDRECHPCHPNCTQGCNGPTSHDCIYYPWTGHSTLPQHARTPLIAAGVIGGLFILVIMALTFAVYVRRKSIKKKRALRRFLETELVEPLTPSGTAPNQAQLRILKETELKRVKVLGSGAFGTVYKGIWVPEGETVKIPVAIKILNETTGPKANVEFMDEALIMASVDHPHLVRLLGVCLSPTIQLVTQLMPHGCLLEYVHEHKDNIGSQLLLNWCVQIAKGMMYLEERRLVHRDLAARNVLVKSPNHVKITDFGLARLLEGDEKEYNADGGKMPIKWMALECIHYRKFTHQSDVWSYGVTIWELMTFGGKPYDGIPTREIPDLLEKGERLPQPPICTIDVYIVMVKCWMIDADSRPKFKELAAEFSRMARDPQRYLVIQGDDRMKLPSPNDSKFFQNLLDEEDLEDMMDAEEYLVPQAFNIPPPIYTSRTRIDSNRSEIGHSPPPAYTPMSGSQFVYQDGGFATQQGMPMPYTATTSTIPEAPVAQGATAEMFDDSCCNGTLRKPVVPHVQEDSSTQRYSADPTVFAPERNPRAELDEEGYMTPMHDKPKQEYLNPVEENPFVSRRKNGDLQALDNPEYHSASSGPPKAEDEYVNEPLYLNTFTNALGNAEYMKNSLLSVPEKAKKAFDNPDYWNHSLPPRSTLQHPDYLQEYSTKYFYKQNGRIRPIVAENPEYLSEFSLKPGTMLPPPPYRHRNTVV
T2 sequence (P06494 23-1257 partner): as the sequence (P06494 23-1257 partner) above

Molecule	EC50 [1]	EC50 [2]	Selectivity SC/CM [2]	CM % Agonism AVG [2]	Schwann cells (SC) (ErbB3) Avg EC50 (M) [1]
huNRG1(S177-F229)(NRGE1C) (E47S_D48A_F49L_M50T) 6xHis: 6xHis-tagged NRG1 variant SEQ ID NO:122; ErbB4 selective agonist without Fc of Example 3 (protein, 6xHis tag; huNRG1(S177-F229)(NRGE1C) (E47S_D48A_F49L_M50T) 6xHis) SHLVKCGEKHKSFCVNGGECFMIEGPSNPSRYLCKCPNEFTGDRCQSALTASFGGGGEGGGGAGGGGHHHHHH	10000 nM	0.695 nM	>10000	85.89%	
huNRG1(S177-F229)(NRGE1C) (E47S_D48T_F49R_M50V) 6xHis: 6xHis-tagged NRG1 variant SEQ ID NO:123 (protein, 6xHis tag; huNRG1(S177-F229)(NRGE1C) (E47S_D48T_F49R_M50V) 6xHis) SHLVKCGEKHKSFCVNGGECFMIEGPSNPSRYLCKCPNEFTGDRCQSTRVASFGGGGEGGGGAGGGGHHHHHH	10000 nM	0.58 nM	>10000	87.47%	
huNRG1(S177-F229)(NRGE1D) 6xHis: 6xHis-tagged NRG1 variant SEQ ID NO:126 (protein, 6xHis tag; huNRG1(S177-F229)(NRGE1D) 6xHis) SHLVKCGESHKSFCVNGGECYMVEGSSIPSRYLCKCPNEFTGDRCQEDFMASFGGGGEGGGGAGGGGHHHHHH	10000 nM	0.39 nM	>10000	90.65%	
huNRG1(S177-F229)(NRGE1D) (E47K_D48L_F49D_M50I) 6xHis: 6xHis-tagged NRG1 variant SEQ ID NO:127 (protein, 6xHis tag; huNRG1(S177-F229)(NRGE1D) (E47K_D48L_F49D_M50I) 6xHis) SHLVKCGESHKSFCVNGGECYMVEGSSIPSRYLCKCPNEFTGDRCQKLDIASFGGGGEGGGGAGGGGHHHHHH	17.2 nM	0.311 nM	55.4019	91.65%	
huNRG1(S177-F229)(NRGE1D) (E47S_D48S_F49E_M50L) 6xHis: 6xHis-tagged NRG1 variant SEQ ID NO:128 (protein, 6xHis tag; huNRG1(S177-F229)(NRGE1D) (E47S_D48S_F49E_M50L) 6xHis) SHLVKCGESHKSFCVNGGECYMVEGSSIPSRYLCKCPNEFTGDRCQSSELASFGGGGEGGGGAGGGGHHHHHH	10000 nM	0.557 nM	>10000	96.05%	
huNRG1(S177-F229)(NRGE1D) (E47T_D48S_F49L_M50L) 6xHis: 6xHis-tagged NRG1 variant SEQ ID NO:129 (protein, 6xHis tag; huNRG1(S177-F229)(NRGE1D) (E47T_D48S_F49L_M50L) 6xHis) SHLVKCGESHKSFCVNGGECYMVEGSSIPSRYLCKCPNEFTGDRCQTSLLASFGGGGEGGGGAGGGGHHHHHH	10000 nM	0.33 nM	>10000	99.83%	
huNRG1(S177-F229)(NRGE1D) (E47V_D48T_F49R_M50L) 6xHis: 6xHis-tagged NRG1 variant SEQ ID NO:130 (protein, 6xHis tag; huNRG1(S177-F229)(NRGE1D) (E47V_D48T_F49R_M50L) 6xHis) SHLVKCGESHKSFCVNGGECYMVEGSSIPSRYLCKCPNEFTGDRCQVTRLASFGGGGEGGGGAGGGGHHHHHH	10000 nM	0.224 nM	>10000	97.95%	
huNRG1(S177-F229) 6xHis: 6xHis-tagged NRG1 fragment S177-F229 without variant mutations (protein, 6xHis tag; huNRG1(S177-F229) 6xHis, 6xHis-tagged NRG1 fragment S177-F229 without variant mutations) SHLVKCAEKEKTFCVNGGECFMVKDLSNPSRYLCKCPNEFTGDRCQNYVMASFGGGGEGGGGAGGGGHHHHHH	3.62 nM	0.587 nM	6.165	97.51%	
:huFcSEFL2(desK)vl31(+):G4SG4:huNRG1(S177-F229)(NRGE1C): N-terminal Fc fusion of NRG1 variant SEQ ID NO:117 (protein, huFcSEFL2(desK)v131(+)G4SG4huNRG1(S177-F229) (NRGE1C)) DKTHTCPPCPAPELLGGPSVFLFPPKPKDTLMISRTPEVTCVVVDVSHEDPEVKFNWYVDGVEVHNAKTKPCEEQYGSTYRCVSVLTVLHQDWLNGKEYKCKVSNKALPAPIEKTISKAKGQPREPQVYTLPPSREKMTKNQVSLTCLVKGFYPSDIAVEWESNGQPENNYKTTPPVLKSDGSFFLYSKLTVDKSRWQQGNVFSCSVMHEALHNHYTQKSLSLSPGGGGGSGGGGSHLVKCGEKHKSFCVNGGECFMIEGPSNPSRYLCKCPNEFTGDRCQEDFMASFDKTHTCPPCPAPELLGGPSVFLFPPKPKDTLMISRTPEVTCVVVDVSHEDPEVKFNWYVDGVEVHNAKTKPCEEQYGSTYRCVSVLTVLHQDWLNGKEYKCKVSNKALPAPIEKTISKAKGQPREPQVYTLPPSREEMTENQVSLTCLVEGFYPSDIAVEWESNGQPENNYETTPPVLDSDGSFFLYSDLTVDKSRWQQGNVFSCSVMHEALHNHYTQKSLSLSPGK		6.4 nM	>10000	62.7%	inactive
:huFcSEFL2(desK)vl31(+):G4SG4:huNRG1(S177-F229)(NRGE1D): N-terminal Fc fusion of NRG1 variant SEQ ID NO:126 (protein, huFcSEFL2(desK)v131(+)G4SG4huNRG1(S177-F229) (NRGE1D)) DKTHTCPPCPAPELLGGPSVFLFPPKPKDTLMISRTPEVTCVVVDVSHEDPEVKFNWYVDGVEVHNAKTKPCEEQYGSTYRCVSVLTVLHQDWLNGKEYKCKVSNKALPAPIEKTISKAKGQPREPQVYTLPPSREKMTKNQVSLTCLVKGFYPSDIAVEWESNGQPENNYKTTPPVLKSDGSFFLYSKLTVDKSRWQQGNVFSCSVMHEALHNHYTQKSLSLSPGGGGGSGGGGSHLVKCGESHKSFCVNGGECYMVEGSSIPSRYLCKCPNEFTGDRCQEDFMASFDKTHTCPPCPAPELLGGPSVFLFPPKPKDTLMISRTPEVTCVVVDVSHEDPEVKFNWYVDGVEVHNAKTKPCEEQYGSTYRCVSVLTVLHQDWLNGKEYKCKVSNKALPAPIEKTISKAKGQPREPQVYTLPPSREEMTENQVSLTCLVEGFYPSDIAVEWESNGQPENNYETTPPVLDSDGSFFLYSDLTVDKSRWQQGNVFSCSVMHEALHNHYTQKSLSLSPGK		4.3 nM	>10000	72.3%	inactive
